Experiment: label from the status in PepcDB records
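Further: failed if final PepcDB status was selected cloned or expressed and not failed if soluble or beyond.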

**Q.** With “MAQPERFGRYRVLRRLGSGSFATVWLGHDDLLDTPVAIKVLAENWAHNLDIHQRFVEEARILRQADSEWLVRVHDIGTLPDDRPYFVMTYADRGSVADRIAQGPLPLDEALRLLTEIGQGVTVLHRHGTIHRDIKPSNVLLQSSPVGERVLVADLGFAKSIDGASGFTASAGTPGYMSPEQSVVGGDIDVRADVYSLGAVAYELVTGKRPPSPPVRVPPSRLRPGVPPALDELIMSALSPNRSDRPPDAATFTSRIREIRMSPDLELATPWWQRYRATWTRLVALVATAVAVLGVAPAASASPHLPMMEIYDASGELHVRVPTPWLRQMQLNGWSPRELGLPGGHEPGLLVATDLDAWSDARQSVSGLFAGLFVSDGQSPDLDRLISSGLCSGQPQRQRFTNAHWDGELWQWVDCSPDSSEGDVFTAAVLQHRGQERTLYLEIRQTEHQPQTVAEILDGLRLIS” as the sequence, how does the protein production read?
**A.** failed

**Q.** For “MAQTQLPHDAKAGPTKPEVRAVVRSKLALTDDDHFVEVGSCTGAVTIAAARDAGRVTALERKADRLETTRKNLAANGLADAVELRNAEAPAELPADADALFIGGSRNYDAVLDHAAETGVDRIVMNVSRLEVAGAATQAFRDRDILTEVVQFQVSHGYELAGATSFDSENPVYMLVGSASGDTEADR”, which protein production is on record?
**A.** failed

**Q.** Which protein production does the source give for “MAQTQTFRRTCFLLAIFILISVSGIGTASEFRVWPGQSIQDAVDSASPGDIILVESGEFNESIRVNKENLTIESASGNPDDIFIAGDTPISYVFEVVANDVKINFFSITDGRCGIFLNNVENCVINGNKISNQEAGIYLLNSRNNLLTNNMVYSNEDCGLKLLASSENIIYGNYFDNVENARDNRFNVWNNSKGNYWSDYGGTDENGDGIGDTPYAINPEVGSMDYRPLIEYSQEAPILPKALFTSDVTEGYAPLVVRFKDFSEDAASRLWDFGDGNFSSYPNPQHTYLNEGTYVVSLTVSNENGSDSASVTVYVRDASELAGPMLPKAQFIYNTTSGHIPLVIKFVDISENADCVTWYFGDGKTSCCPEPEHTFCCPGSYTVSLAAINENGTSSASIVVNVLPAESVESSEDTENSANTGSGSDKNNACNIVNETDADASEKAGDPELITRSENTDSLGNSIIEYASDTTDKFADAENSINAEATENSESDSNGGGEGTGTARIIHREELEAIKDSVISTASSNILKETERALENETLKVQKNVEDFVDDSLPESVGDSLPEMEQRIAPWIPSFLGLAGVIFIVSVMKRGRRRRQK” here?
**A.** failed

**Q.** With “MAQVFNFSSGPAMLPAEVLKLAQQELCDWHGLGTSVMEISHRGKEFIQVAEEAEQDFRDLLNIPSNYKVLFCHGGGRGQFAGVPLNLLGDKTTADYVDAGYWAASAIKEAKKYCAPQIIDAKITVDGKRAVKPMREWQLSDNAAYLHYCPNETIDGIAIDETPDFGPEVVVTADFSSTILSAPLDVSRYGVIYAGAQKNIGPAGLTLVIVREDLLGKAHESCPSILDYTVLNDNDSMFNTPPTFAWYLSGLVFKWLKAQGGVAAMHKINQQKAELLYGVIDNSDFYRNDVAQANRSRMNVPFQLADNTLDKVFLEESFAAGLHALKGHRVVGGMRASIYNAMPIEGVKALTDFMIDFERRHG” as the sequence, how does the protein production read?
**A.** not failed

**Q.** For “MARAKNVLWIMCDQLRYDYLGCTGHPTLKTPNIDAMAKRGVLFSKAYVQSPICGPSRMSFYTGRYMRSHGSHWNGWPLRVGEPTLGDHLKKIGVRNVLVGKTHMAPDLEGMKALGIPPESMIGVHVAECGFEPYERDDGLHPTGRPRPKYDEYLRKQGFEATNPWEHWANSGAAEDGSLQNGWLLVHADKAARVPEEHSETPYMTRRAMDFISEAETDGKPWCLHLSYIKPHWPYIAPEPYASMYSTDDMIPVIRSERERQNPHPVFGAYMDMRYSRNMARDDAREKVIPTYMGLITQIDDQMGALMKFLEERGLLDTTMIVFTSDHGDYLGDHWMGEKDLFHEQSAKIPLIIIDPSREADATRGTRSDALVEGIDLAPTFVDYFGGKVPGHILEGRSLLPLLRGPTPPDWRKVAFSEYDYAMQDVRLKLNQPIERCRLFMVFDGRWKYIHASGFRPMLYDLETDPEEFLDRGDDPDCAGIIARLQAELFDWALHPNDHITTPREKIAAYADNQLQVKGGVLIGIWDEAELAAIKDGIAQRAKL”, which protein production is on record?
**A.** failed

**Q.** For “MARDGGVSCLRRSEMMSVGGIGGIESAPLDLDEVHVLAVDDSLVDRIVIERLLRITSCKVTAVDSGWRALEFLGLDNEKASAEFDRLKVDLIITDYCMPGMTGYELLKKIKESSNFREVPVVIMSSENVLTRIDRCLEEGAQDFLLKPVKLADVKRLRSHLTKDVKLSNGNKRKLPEDSSSVNSSLPPPSPPLTISPESSPPLTVSTESSDSSPPLSPVEIFSTSPLSSPIDDEDDDVLTSSSEESPIRRQKMRSPGLD”, which protein production is on record?
**A.** failed

**Q.** With “MARGLNRVFLIGALATRPDMRYTPAGLAILDLTLAGQDLLLSDNGGEREVSWYHRVRLLGRQAEMWGDLLDQGQLVFVEGRLEYRQWEREGERRSELQIRADFLDPLDDRGKERAEDSRGQPRLRAALNQVFLMGNLTRDPELRYTPQGTAVARLGLAVNERRQGAEERTHFVEVQAWRDLAEWAAELRKGDGLFVIGRLVNDSWTSSSGERRFQTRVEALRLERPTRGPAQAGGSRSREVQTGGVDIDEGLEDFPPEEELPF” as the sequence, how does the protein production read?
**A.** not failed

**Q.** Which protein production does the source give for “MARIHQLDEHLSNMIAAGEVVERPSGIVKELVENSIDAKAKHIEIQILQGGIDCITIIDDGCGMDAQDATLAFERHATSKIQAVDDLWKISTMGFRGEALPSIASVSQVTLRTNDGIDSSEVIIYYGTLKSARPCGTPKGTMLEVRNLFQKTPARFKHLKSPQYEFSLISDVVQKFAISHPNIGFELSHDGRSVFKTKGNGNLREVLMQIYGRDGAKTAIELHGQDLDYTIRGYALQPQFQRATKYYVLLYINGRMIRNYHLQKAVMDAYAPYMPKDRYPIAVINMEMDAQLVDVNVHPSKWEIRLSKEKQLEKLLYQTIKAALMQDMEVPNIQARKENKKEKIEIQELQFTYPRDQEVKKLHTEVNDSFVHYNGKPKQTITEESKVQVDKVEPQEAPVEAEKQESVDKKQELSESQSSDTQAPIKDQVIEEVSTTKQAETLFKDIVPIQEVVMKAEQEPASESINPSLPQLHVIGQFHNSYILAEGEKGLYIIDQHAAQERYHYEMIQKQILSGVKDTQPLLIPITVETTISAVSRIDDLNALLEQVGIHFEVFGNTTLLCRELPIWLKDTKEEAFLQDMIDLWQKDDEISLDKLRKHTIATMACHSSIRFHRSLTMEEMKQVILDLGKCEQPFHCPHGRPTLICYEDKDLIHDFERG” here?
**A.** failed

**Q.** Which protein production does the source give for “MARIIVKNGYLKGGSEKTSAHLNNLVKYIATRDGVEKIKNGRELWHATKKQQTLIGEILREFPDAKEMFEYEDYLANPNRENASEFITIALEQHLDKIGDREKYLDYIANRPRVEKFESHGLFTAGDAPLVLSQVAEEVAAHTGNVWTPIISLRREDAARLDYDNAAAWKALLSSKAMELAENLKIHPDHLKWYGAFHNESHHPHIHMVCYSTDPREGYLTKQGIRKMKSSLANEIFRQELIPLYGEKTQRRDELKEQSAESLRELIRQIKGGVLVSERMEQLLTHLAERLQTVSGKKQYGYLKPELKNVVDEIVDDLAQDSRVSEAYRMWWETKGRIESIYTETPSEPPPLSHCDDFKPIRNMVIQEALLIGNMTFEEPASVETALPEPENDLEMSLSDIEDEEDQEPIDDSVGRPSSDEASAGKESSDSWWTEEYRQAKQYLCGDEDAGVPQDFRKAHELFMAEADKNNPLALYDLGRMSADGLGCEADADAAYGWYEKALVVLHAAEEAKPWKYTEYRIGKMYAAGLGAEQDYLQASDWLTLSADKKYKYAQYSLGGLYYHGKGVEQDHVTAFALYTRSADQSFPYASFELGKMLRDGIGCAKNQQDSDRRFKEAFLGFVSLEEQSHDDKLQYRLGWMLLNGIGTDKDEARAKEYFEKAASVGNPFACYQLAKFILSDEKAQPQDVEKALGYLRKAVEAENPYAAYFLGKLYEKGQHVPQNTAEAMRLYTLSAEQDNEFAAYRLGKLYLDGDGVLKDVESAIRWLTFAADRKNQFAEYALGVLYFKGEDIPKDVPKALEYLKRSAGQGNQFAQYRLGKIYLMGEDVPKDIQTALQFLTAAAEQGNQYAQYTLGKLYLIGKDVPKDKETAVRWFTLSAAQGNIYAQFFLDHIDNFKDPSVLLAGTRLLHHMSRIFADNAPPLKLPGQRTDRKLLRKLREKKQAQGHARDDHEQTMSL” here?
**A.** failed

**Q.** With “MARKKAMKVLRKQKKRENMQRFTQKQNIGRACLTAKEFRLLQRMSHSSKALRNVGLYTMKQSYLNHNRMATVKEVDTAMQNDMNYSGIQSNSVQAIRRSLFTEVKSFFKALEQWKKNPEKFTGRPKFPNYSRSTDKRIIEIYQVPKVDENGYWIIPMNVAFRKKFGSIQIRMPKNLRNKKISYIEIVPKQKGRFFEVHYTYEMHVSQMKKPSTTTSNALSCDLGVDRLVSCVTHTGDAFLIDGKKLKSINQYFNKMICNLQQKNMDNGISKRIVTNKMAALWHKRERQINGYIAQTVGLLFKKVKEFDIDTIVIGYNAGWKQNSHMGKKNNQKFVQIPFQKLMAAIENKCIKEGIRFFKQEESYTSKASFLDKDPVPVWSKNDRTQYRFSGKRITRGLYQSKAGTCIHADINGAMNILKKSGVVELDDNLKVKTPILLEVQKRKAIASRIA” as the sequence, how does the protein production read?
**A.** failed

**Q.** With “MARLSLVPGRGGLVTEWTVQGQPILYFDRERFQDPSLSVRGGIPILFPICGNLPQDQFNHAGKSYRLKQHGFARDLPWEVIGQQTQDNARLDLRLSHNDATLEAFPFAFELVFSYQLQGHSLRIEQRIANLGDQRMPFSLGFHPYFFCREKLGITLAIPANDYLDQKTGDCHGYDGQLNLTSPELDLAFTQISQPRAHFIDPDRNLKIEVSFSELYQTLVLWTVAGKDYLCLEPLEHHHHHH” as the sequence, how does the protein production read?
**A.** failed

**Q.** For “MARRKRRNFSKQASEILNEYFYSHLSNPYPSEEAKEELARKCGITVAQVSNWFGNKRIRYKKNIGKAQEEANLYAAKKAAGASP”, which protein production is on record?
**A.** not failed

**Q.** With “MARTITFDIPSQYKLVDLIGEGAYGTVCSAIHKPSGIKVAIKKIQPFSKKLFVTRTIREIKLLRYFHEHENIISILDKVRPVSIDKLNAVYLVEELMETDLQKVINNQNSGFSTLSDDHVQYFTYQILRALKSIHSAQVIHRDIKPSNLLLNSNCDLKVCDFGLARCLASSSDSRETLVGFMTEYVATRWYRAPEIMLTFQEYTTAMDIWSCGCILAEMVSGKPLFPGRDYHHQLWLILEVLGTPSFEDFNQIKSKRAKEYIANLPMRPPLPWETVWSKTDLNPDMIDLLDKMLQFNPDKRISAAEALRHPYLAMYHDPSDEPEYPPLNLDDEFWKLDNKIMRPEEEEEVPIEMLKDMLYDELMKTME” as the sequence, how does the protein production read?
**A.** failed

**Q.** Which protein production does the source give for “MARTRSADYENIRDTIIERAAAMFARQGYSETSIGDIARACECSKSRLYHYFDSKEAVLRDMLTTHVDSLLERCRQVLYGSNEPKTRFLQIVKLFLEIYATSRDRHVVMLTCLDALPEDQRKALIAKQRELIAYVRDALLQLRPDMAANRTLAHVDTMLFFGMINWTYTWYKADGSVSPDALAERTVQLFLDGYLNLLSA” here?
**A.** not failed

**Q.** For “MASATEDPVLERYFKGHKAAITSLDLSPNGKQLATASWDTFLMLWNFKPHARAYRYVGHKDVVTSVQFSPHGNLLASASRDRTVRLWIPDKRGKFSEFKAHTAPVRSVDFSADGQFLATASEDKSIKVWSMYRQRFLYSLYRHTHWVRCAKFSPDGRLIVSCSEDKTIKIWDTTNKQCVNNFSDSVGFANFVDFNPSGTCIASAGSDQTVKVWDVRVNKLLQHYQVHSGGVNCISFHPSGNYLITASSDGTLKILDLLEGRLIYTLQGHTGPVFTVSFSKGGELFASGGADTQVLLWRTNFDELHCKGLTKRNLKRLHFDSPPHLLDIYPRTPHPHEEKVETVEINPKLEVIDLQISTPPVMDILSFDSTTTTETSGRTLPDKGEEACGYFLNPSLMSPECLPTTTKKKTEDMSDLPCESQRSIPLAVTDALEHIMEQLNVLTQTVSILEQRLTLTEDKLKDCLENQQKLFSAVQQKS”, which protein production is on record?
**A.** failed

Source: a protein production outcome set (Wang et al. 2014)
